# Residue numbers refer to the chain shown, from its start. In names and notes the source's numbering stands.
# T1: PpSB1-LOV (Pseudomonas putida, UniProt Q88E39)
# T1 construct: gene PP_4629; dimer
# T1 sequence (Q88E39 1-142): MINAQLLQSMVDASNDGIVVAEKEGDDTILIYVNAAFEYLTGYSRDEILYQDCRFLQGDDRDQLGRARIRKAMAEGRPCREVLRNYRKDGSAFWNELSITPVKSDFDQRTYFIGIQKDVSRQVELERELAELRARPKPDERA
# B1: BtNR (Bacillus tequilensis) (protein)
# chain: MADIKKQILDAYNFRHATKEFDPNKKVSDSDFEFILETGRLSPSSLGLEPWKFVVVQNPEFREKLREYTWGAQKQLPTASHFVLILARTAKDIKYNADYIKRHLKEVKQMPQDVSEGYISKTEEFQKNDLHLLESDRTLFDWASKQTYIALGNMMTAAAQIGVDSCPIEGFQYDHIHRILEEEGLLENGSFDISVMAAFGYRVRDPRPKTRSAVEDVVKWV
# notes: recombinant, coexpressed with ApbE, purified
# B2: BtNR (Bacillus tequilensis; A11D/A17T/F14S/H16A/N13L/R15G/Y12G) (protein)
# chain: B1 chain with A11D, Y12G, N13L, F14S, R15G, H16A, A17T
# notes: as for B1
# What was measured:
# miniSOG [1] = biological target: T2, miniSOG (Arabidopsis thaliana, UniProt P93025, I387M/N390S/S394T/S409G/C426G/F470L, form not given); test: SDS-PAGE and MS; assay type: binding; conditions: covalent; attached in vivo by ApbE
# T2 construct: gene PHOT2; engineered LOV domain of phototropin 2, 106 residues, several mutations abolishing flavin-cysteine adduct; recombinant, coexpressed with ApbE
# miniSOG [2] = biological target: T3, miniSOG (Arabidopsis thaliana, UniProt P93025, I387M/N390S/S394T/S409G/C426G/A437D/T438I/Q440S/K441G/I442A/R443T/F470L); test: X-ray crystal structure […] Å; MS; assay type: binding; conditions: miniSOG-F2; covalent; phosphoester to OG1 of Thr57; attached in vivo by ApbE
# T3 construct: gene PHOT2; engineered LOV domain of phototropin 2, 106 residues, several mutations abolishing flavin-cysteine adduct; recombinant, coexpressed with ApbE
# PpSB1-LOV = biological target: T1, PpSB1-LOV; test: absorbance of purified holoprotein; SDS-PAGE fluorescence; ESI-MS; assay type: binding; conditions: dissociable, noncovalent FMN
# steady-state kinetics = substrate: NC(=O)N/N=C/c1ccc([N+](=O)[O-])o1; test: steady-state kinetics; assay type: biochemical, Bacillus tequilensis
# Text: steady-state kinetics on BtNR
# [3] = BtNR-F3, covalent FMN 100% (cofactor)
molecule,measurement,setting,value
Cc1cc2nc3c(=O)[nH]c(=O)nc-3n(C[C@H](O)[C@H](O)[C@H](O)COP(=O)(O)O)c2cc1C [FMN],SDS-PAGE and MS,miniSOG [1],SDS-PAGE and MS analyses revealed that both proteins were fully covalently flavinylated
same,X-ray crystal structure 2.0 Å; MS,miniSOG [2],the introduced phosphoester bond between OG1 of Thr57 and the phosphate of FMN
same,absorbance of purified holoprotein; SDS-PAGE fluorescence; ESI-MS,PpSB1-LOV,the wild-type protein did not yield in-gel fluorescence as it contains a dissociable FMN
B1,Km,steady-state kinetics; dissociable FMN,64 ± 11.5 µM
same,kcat,steady-state kinetics; dissociable FMN,32 ± 2.3 s⁻¹
same,kcat/Km,steady-state kinetics; dissociable FMN,500000 M⁻¹ s⁻¹
B2,Km,steady-state kinetics; [3],42 ± 6.6 µM
same,kcat,steady-state kinetics; [3],4.5 ± 0.2 s⁻¹
same,kcat/Km,steady-state kinetics; [3],110000 M⁻¹ s⁻¹

# From article PMC10722498, “Fixing Flavins: Hijacking a Flavin Transferase for Equipping Flavoproteins with a Covalent Flavin Cofactor” (Journal of the American Chemical Society, 2023)
